Source: patent publication US20020185139A1, “Methods for reducing postoperative intraocular pressure” (priority 2001, published 2002)

System: corneal endothelium
Parameters: species or system rabbits
Settings: rabbit, in vivo
Text: In order to investigate the effect of hyaluronidase on the postoperative endothelium, the eyes of the rabbits from Experiment 1 were studied by performing vital staining of the corneal endothelium of the rabbits.

hyaluronidase
endothelial damage (vital staining of corneal endothelium): no endothelial damage
